Patent US20090142346A1 (Takeda / Millennium, published 2009)

Legend:
[1] = target: T1, nectin-2 Ig2 domain-deficient protein (human, UniProt Q92692 32-538); test: FCM
T1 construct: also called delta-Ig2; Nectin-2ΔIg2
T1 sequence: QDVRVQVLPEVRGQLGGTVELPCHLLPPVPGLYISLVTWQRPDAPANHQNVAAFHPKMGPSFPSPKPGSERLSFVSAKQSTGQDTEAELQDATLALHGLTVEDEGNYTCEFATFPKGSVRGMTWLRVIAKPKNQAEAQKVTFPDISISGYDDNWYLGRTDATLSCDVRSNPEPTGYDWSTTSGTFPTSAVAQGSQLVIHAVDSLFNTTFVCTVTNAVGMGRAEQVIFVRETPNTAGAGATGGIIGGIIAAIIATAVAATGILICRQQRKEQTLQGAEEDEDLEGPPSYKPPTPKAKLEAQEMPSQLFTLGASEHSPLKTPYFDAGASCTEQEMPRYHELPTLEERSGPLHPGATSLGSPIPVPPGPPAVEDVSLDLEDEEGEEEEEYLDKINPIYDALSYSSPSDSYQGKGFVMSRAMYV
Experimental: After 200 μL of FCM buffer was added to each well and washed once by centrifugal operation, 50 μL each of Alexa488-labeled secondary antibody diluted in FCM buffer to 10 μg/mL was added to and mixed therewith, and the mixture was then reacted on ice for an hour. The Alexa488-labeled secondary antibody used was Alexa Fluor488 goat anti-human IgG (H+L) for the human antibodies and Alexa Fluor488 goat anti-rabbit IgG (H+L) (Invitrogen) for the rabbit antibody. The cells in each well were washed twice with FCM buffer and then resuspended in 250 μL of FCM buffer. Using the flow cytometer MPL500 (BECKMAN COULTER), the fluorescence intensity of stained cells was measured to determine the ratio of the median value of fluorescence intensities of the respective antibodies in the primary antibody group to the median value of fluorescence intensities in the negative control group.

human nectin-2δ G113R = target: T2, human nectin-2δ G113R (human, UniProt Q92692 32-538); test: FCM, CHO-K1 transient
T2 construct: transient on CHO-K1
T2 sequence: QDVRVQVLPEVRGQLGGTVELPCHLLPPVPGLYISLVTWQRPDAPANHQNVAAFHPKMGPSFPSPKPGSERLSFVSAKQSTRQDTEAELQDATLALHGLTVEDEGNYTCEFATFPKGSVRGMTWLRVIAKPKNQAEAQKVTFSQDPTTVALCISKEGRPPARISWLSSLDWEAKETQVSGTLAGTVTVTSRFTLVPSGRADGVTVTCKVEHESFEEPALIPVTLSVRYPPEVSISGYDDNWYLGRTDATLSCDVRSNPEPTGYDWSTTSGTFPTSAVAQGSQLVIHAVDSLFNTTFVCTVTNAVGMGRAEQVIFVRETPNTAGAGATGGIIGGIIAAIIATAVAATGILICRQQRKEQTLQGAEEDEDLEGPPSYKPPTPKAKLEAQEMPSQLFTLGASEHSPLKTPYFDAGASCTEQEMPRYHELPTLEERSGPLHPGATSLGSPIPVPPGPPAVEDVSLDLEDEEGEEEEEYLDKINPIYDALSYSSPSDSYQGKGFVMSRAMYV
Experimental: (§1) After these cells were further washed twice with FCM buffer and then resuspended in 250 μL of FCM buffer, fluorescence intensity of the stained cells was measured by the flow cytometer MPL500 (BECKMAN COULTER). A ratio of the median value of fluorescence intensities of negative control plasmid pcDNA3.1(+)-transfected CHO-K1 cells to the median value of fluorescence intensities of each gene-transfected CHO-K1 cells was calculated for each antibody.
(§2) Then, after 200 μL of FCM buffer was added to each well and washed once by centrifugal operation, 50 μL of Alexa Fluor488 goat anti-human IgG (H+L) diluted in FCM buffer to 10 μg/mL was added thereto for suspension, and the mixture was then reacted on ice for an hour. Next, the cells were washed twice with FCM buffer and resuspended in 250 μL of FCM buffer.

human nectin-2δ H128R = target: T3, human nectin-2δ H128R (human, UniProt Q92692 32-538); test: FCM, CHO-K1 transient
T3 construct: transient on CHO-K1
T3 sequence: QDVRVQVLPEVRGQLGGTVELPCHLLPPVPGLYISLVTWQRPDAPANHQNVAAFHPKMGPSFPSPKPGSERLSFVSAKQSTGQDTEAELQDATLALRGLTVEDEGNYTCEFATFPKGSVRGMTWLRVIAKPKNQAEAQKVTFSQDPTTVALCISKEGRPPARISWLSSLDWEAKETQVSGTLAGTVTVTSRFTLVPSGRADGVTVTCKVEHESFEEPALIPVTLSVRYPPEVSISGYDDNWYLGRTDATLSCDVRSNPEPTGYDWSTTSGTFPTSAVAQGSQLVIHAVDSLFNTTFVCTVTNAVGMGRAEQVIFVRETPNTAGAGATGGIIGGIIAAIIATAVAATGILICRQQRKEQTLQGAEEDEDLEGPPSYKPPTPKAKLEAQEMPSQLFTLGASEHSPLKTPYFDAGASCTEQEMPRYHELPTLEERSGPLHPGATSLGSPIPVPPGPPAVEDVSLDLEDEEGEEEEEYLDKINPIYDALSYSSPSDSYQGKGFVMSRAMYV
Experimental: as §1, §2

[2] = target: T4, human nectin-2δ AN77-78PD (human, UniProt Q92692 32-538); test: FCM, CHO-K1 transient
T4 construct: transient on CHO-K1
T4 sequence: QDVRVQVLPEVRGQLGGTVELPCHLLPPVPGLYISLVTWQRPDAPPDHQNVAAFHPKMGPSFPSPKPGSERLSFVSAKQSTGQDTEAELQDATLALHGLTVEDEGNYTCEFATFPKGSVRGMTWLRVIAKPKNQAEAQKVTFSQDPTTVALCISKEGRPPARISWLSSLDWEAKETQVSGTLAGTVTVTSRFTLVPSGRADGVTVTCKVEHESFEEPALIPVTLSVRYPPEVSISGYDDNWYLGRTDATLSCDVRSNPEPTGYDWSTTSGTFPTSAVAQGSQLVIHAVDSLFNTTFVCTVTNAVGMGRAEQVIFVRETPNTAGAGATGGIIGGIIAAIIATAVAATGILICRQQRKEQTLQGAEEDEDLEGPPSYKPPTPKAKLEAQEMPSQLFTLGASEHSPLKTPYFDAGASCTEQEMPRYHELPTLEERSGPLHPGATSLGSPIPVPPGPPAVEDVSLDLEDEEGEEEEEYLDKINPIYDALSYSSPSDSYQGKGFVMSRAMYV
Experimental: as §1, §2

[3] = target: T5, cynomolgus monkey nectin-2 protein (cynomolgus monkey, UniProt Q92692 32-538 (human entry)); test: FCM, CHO-K1 transient
T5 construct: transient on CHO-K1; also called maNectin-2
T5 chain: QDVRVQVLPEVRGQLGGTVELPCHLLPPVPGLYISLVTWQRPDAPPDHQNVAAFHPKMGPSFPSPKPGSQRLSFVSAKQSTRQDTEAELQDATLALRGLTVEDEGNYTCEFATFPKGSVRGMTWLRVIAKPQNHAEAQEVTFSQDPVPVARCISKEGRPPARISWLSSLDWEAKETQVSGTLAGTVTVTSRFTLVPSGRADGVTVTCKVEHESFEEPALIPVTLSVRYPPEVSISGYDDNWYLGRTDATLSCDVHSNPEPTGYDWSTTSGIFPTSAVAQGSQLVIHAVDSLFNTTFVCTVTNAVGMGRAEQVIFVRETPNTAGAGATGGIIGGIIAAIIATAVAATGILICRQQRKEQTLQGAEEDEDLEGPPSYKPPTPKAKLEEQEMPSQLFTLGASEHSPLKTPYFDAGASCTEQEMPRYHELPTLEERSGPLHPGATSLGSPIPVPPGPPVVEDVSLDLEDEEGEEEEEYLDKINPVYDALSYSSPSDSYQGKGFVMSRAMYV
Experimental: (§3) A ratio of the median value of fluorescence intensities of negative control plasmid pcDNA3.1(+)-transfected CHO-K1 cells to the median value of fluorescence intensities of each gene-transfected CHO-K1 cells was calculated for each antibody.
(§4) Then, after 200 μL of FCM buffer was added to each well and washed once by centrifugal operation, 50 μL each of Alexa488-labeled secondary antibody diluted in FCM buffer to 10 μg/mL was added thereto for suspension, and the mixture was then reacted on ice for an hour. As secondary antibodies, Alexa Fluor488 goat anti-human IgG (H+L) was used for the human antibodies and Alexa Fluor488 goat anti-rabbit IgG (H+L) (Invitrogen) was used for the rabbit antibody, respectively. Next, the cells were washed twice with FCM buffer and then resuspended in 250 μL of FCM buffer.

human nectin-2δ protein = target: T6, human nectin-2δ protein (human, UniProt Q92692 32-538); test: FCM, CHO-K1 transient
T6 construct: full length, stably on CHO-K1 (43-2) or transiently on CHO-K1 from pEE12.4-Nectin-2δ
T6 sequence: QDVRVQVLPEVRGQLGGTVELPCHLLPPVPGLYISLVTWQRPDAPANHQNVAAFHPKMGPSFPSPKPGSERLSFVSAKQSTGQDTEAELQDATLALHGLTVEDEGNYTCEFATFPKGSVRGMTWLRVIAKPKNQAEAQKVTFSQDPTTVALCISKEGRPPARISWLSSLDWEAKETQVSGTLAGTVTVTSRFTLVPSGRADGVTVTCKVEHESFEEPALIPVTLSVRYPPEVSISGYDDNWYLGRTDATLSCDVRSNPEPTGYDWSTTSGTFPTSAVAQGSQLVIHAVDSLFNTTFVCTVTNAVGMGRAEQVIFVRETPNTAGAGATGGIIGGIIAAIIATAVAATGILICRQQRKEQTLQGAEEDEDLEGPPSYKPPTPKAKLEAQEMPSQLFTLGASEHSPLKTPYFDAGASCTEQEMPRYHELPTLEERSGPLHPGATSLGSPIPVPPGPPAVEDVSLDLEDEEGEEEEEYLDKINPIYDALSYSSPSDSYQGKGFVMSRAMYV
Experimental: as §3, §4

median fluorescence ratio (human nectin-2δ G113R): 38.7 ratio
median fluorescence ratio (human nectin-2δ H128R): 51.5 ratio
median fluorescence ratio [2]: 44.2 ratio
median fluorescence ratio [3]: 14.8 ratio
median fluorescence ratio (human nectin-2δ protein): 43 ratio
B1: Nec1-554-1 (antibody, human IgG1, V domains shown)
VH: EVQLVESGGGLVKPGGSLRLSCAASGFTFSSYNMNWVRQAPGKGLEWVSSISSSSSYIYYADSVKGRFTISRDNAKNSLYLQMNSLRAEDTAVYYCARDYYGSGTYYLFDYWGQGTLVTVSS
VL: EIVLTQSPDFQSVTPKEKVTITCRASQSIGSSLHWYQQKPDQSPKLLIKYASQSFSGVPSRFSGSGSGTDFTLTINSLEAEDAAAYYCHQSRSLPITFGQGTRLEIK
notes: human IgG1/k; also called Nec1-554-1 SP3
binding result [1]: no binding (tested: ratio below 2 = no reactivity)
